According to patent US20260242465A1 (CELSIUS THERAPEUTICS, published 2026):

Key:
hFcγRIIA167R [1] = target: T1, hFcγRIIA167R (human, UniProt P12318 34-218); assay: SPR (Biacore T200), single-cycle kinetics; replicate 2
T1 construct: also called FcγRII (167R polymorphism); not shown: His tag
T1 sequence (looked up): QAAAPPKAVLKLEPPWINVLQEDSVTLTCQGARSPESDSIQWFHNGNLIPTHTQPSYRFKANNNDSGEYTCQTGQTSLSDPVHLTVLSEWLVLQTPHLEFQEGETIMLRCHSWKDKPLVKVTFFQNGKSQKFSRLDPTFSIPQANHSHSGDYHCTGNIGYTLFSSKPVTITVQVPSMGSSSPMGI
Excerpt: (§1) Human Fc receptors, FcγRI, FcγRII (both 167R and 167H polymorphisms), FcγRIIB, FcγRIIIA (both 176F and 176V polymorphisms) and FcγRIIIB were obtained from Sino Biological (Beijing, China). FcγR were captured on a CM5 sensor chip pre-coupled using a His capture kit (Cytiva, Uppsala, Sweden) using standard amine chemistry.
(§2) At the start of each cycle, His-tagged Fcγ receptors diluted in HBS-P+ (Cytiva, Uppsala, Sweden) were loaded to a specific RU level. A five point, three-fold dilution range of test antibody without regeneration between each concentration was used for each receptor tested. Antibodies were passed over the chip in increasing concentrations followed by a single dissociation step. Following dissociation, the chip was regenerated with two injections of glycine (pH 1.5).

hFcγRIIIA176V [2] = target: T2, hFcγRIIIA176V (human, UniProt P08637 17-208); assay: as above
T2 construct: Bought; also called FcγRIIIA (176V polymorphism); not shown: His tag
T2 sequence (P08637 17-208 F176V): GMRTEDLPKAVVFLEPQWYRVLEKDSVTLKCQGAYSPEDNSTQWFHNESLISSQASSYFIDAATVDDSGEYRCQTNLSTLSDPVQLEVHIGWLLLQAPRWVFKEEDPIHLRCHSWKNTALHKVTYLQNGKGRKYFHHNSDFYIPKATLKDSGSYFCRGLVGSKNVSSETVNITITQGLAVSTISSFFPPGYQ
Excerpt: as §1, §2

recombinant hTREM1-chFc1 [3] = target: T3, recombinant hTREM1-chFc1 (human); assay: BLI competition; hTREM1-chFc1 on AHC biosensor, antibody titrated 200 to 0.012 nM for 300 s, then 971 nM PGLYRP1 (competitor: PGLYRP1)
T3 construct: the whole entry is named; Captured on Octet AHC biosensors; also called immobilized TREM1-ECD; immobilized TREM1 protein
T3 sequence (Q9NP99 21-205): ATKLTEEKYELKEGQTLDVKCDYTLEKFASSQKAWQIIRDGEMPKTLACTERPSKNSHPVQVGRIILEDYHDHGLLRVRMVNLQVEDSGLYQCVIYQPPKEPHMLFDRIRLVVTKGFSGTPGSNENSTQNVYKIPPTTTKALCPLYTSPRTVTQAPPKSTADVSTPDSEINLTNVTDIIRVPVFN
Description: (§3) The data was fitted with the sigmoidal (four-parameter) nonlinear regression equation. […] The data is from a single experiment that is representative of three replicates.
(§4) Briefly, recombinant hTREM1-chFc1 was immobilized on Octet AHC biosensors and then blocked with 100 μg/mL hIgG1-Fc. […] The incubation time between mAb and immobilized TREM1-ECD is limited to 300 s, thus limiting the amount of antibody that can bind to the immobilized TREM1, particularly at the sub-saturation concentrations.

recombinant hTREM1-chFc1 [4] = target: T3, recombinant hTREM1-chFc1; assay: bio-layer interferometry blocking assay: hTREM1-chFc1 on AHC biosensors, antibody titrated, then PGLYRP1 (blocked ligand, 971 nM per paragraph 383)
Description: as §3, §4

hFcγRIIA167R [5] = target: T1, hFcγRIIA167R; assay: SPR (Biacore T200), single-cycle kinetics; His-tagged FcγR captured, antibody as analyte; replicate 1
Excerpt: as §1, §2

hFcγRIIIA176V [6] = target: T2, hFcγRIIIA176V; assay: as above
Excerpt: as §1, §2

hFcγRIIA167R [7] = target: T1, hFcγRIIA167R; assay: SPR (Biacore T200), single-cycle kinetics; replicate 1
Excerpt: as §1, §2

hFcγRIIIA176V [8] = target: T2, hFcγRIIIA176V; assay: as above
Excerpt: as §1, §2

hFcγRIIA167R [9] = target: T1, hFcγRIIA167R; assay: SPR (Biacore T200), single-cycle kinetics; His-tagged FcγR captured, antibody as analyte; replicate 2
Excerpt: as §1, §2

hFcγRIIIA176V [10] = target: T2, hFcγRIIIA176V; assay: as above
Excerpt: as §1, §2

[11] = target: T4, human TREM2 expressed on HEK293 cells (human, UniProt Q9NZC2 19-230); assay: polyspecificity assay; flow cytometry on transfected HEK293 cells
T4 construct: whole, on cells; Named member of the array of more than 6,000 human membrane proteins; also called TREM2 (membrane protein array)
T4 sequence (looked up): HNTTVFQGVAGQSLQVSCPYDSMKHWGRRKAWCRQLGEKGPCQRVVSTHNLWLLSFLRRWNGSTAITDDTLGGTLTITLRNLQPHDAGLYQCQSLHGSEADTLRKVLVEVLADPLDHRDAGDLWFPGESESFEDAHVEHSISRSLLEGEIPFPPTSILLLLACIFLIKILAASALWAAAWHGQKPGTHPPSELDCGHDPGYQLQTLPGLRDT
Excerpt: Transient transfection was used to express an array of each of more than 6,000 human membrane proteins including TREM2 and other TREM family members on the surface of HEK293 cells. […] TMEM178A is an intracellular protein that localizes to the endoplasmic reticulum; see e.g., Decker et al., Proc. Natl. Acad. Sci., 112(51):15654-9 (2015).

purified human C1q = target: T5, purified human C1q (human, UniProt P02745 23-245; P02746 28-253; P02747 29-245); assay: ELISA; antibody coated in serial dilutions, human C1q at 5 µg/ml, anti-C1q-HRP
T5 construct: Purified from HyCult Biotech; also called complement protein C1q
T5 sequence (P02745 23-245 limits assumed, chain 1 of 3): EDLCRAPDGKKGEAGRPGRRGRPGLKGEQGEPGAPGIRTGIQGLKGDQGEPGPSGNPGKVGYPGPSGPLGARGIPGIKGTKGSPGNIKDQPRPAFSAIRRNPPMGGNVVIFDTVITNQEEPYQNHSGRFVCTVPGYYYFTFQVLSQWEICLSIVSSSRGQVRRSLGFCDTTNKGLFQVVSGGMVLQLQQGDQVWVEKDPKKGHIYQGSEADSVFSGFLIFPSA
T5 sequence (P02746 28-253 limits assumed, chain 2 of 3): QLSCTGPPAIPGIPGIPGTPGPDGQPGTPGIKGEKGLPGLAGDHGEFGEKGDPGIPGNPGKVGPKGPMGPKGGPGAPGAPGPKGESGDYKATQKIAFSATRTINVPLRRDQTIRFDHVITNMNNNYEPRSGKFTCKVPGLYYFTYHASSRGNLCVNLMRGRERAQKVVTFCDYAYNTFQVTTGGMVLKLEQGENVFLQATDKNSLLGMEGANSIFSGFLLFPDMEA
T5 sequence (P02747 29-245 limits assumed, chain 3 of 3): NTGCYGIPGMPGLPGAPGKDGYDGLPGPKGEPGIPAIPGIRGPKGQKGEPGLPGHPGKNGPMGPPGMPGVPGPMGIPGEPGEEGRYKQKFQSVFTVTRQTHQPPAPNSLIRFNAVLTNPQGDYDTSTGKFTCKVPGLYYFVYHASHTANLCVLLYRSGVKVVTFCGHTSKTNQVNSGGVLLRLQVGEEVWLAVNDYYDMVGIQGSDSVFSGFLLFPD
Description: Plates were blocked with IX PBS (pH 7.4) with 2% w/v BSA. After blocking, purified human C1q (HyCult Biotech, Wayne, Pennsylvania) at 5 μg/ml was added to the ELISA plates for binding, Plates were washed an anti-C1q-HRP (Abcam, Cambridge, UK) was diluted 1:1000 in blocking buffer and added to the ELISA plates for detection. After washing, TMB microwell peroxidase substrate (Life Technologies) was added for detection. The reaction was stopped with TMB stop solution (VWR, Lutterworth, Leicestershire) after 5 minutes. Absorbance was read at 450 nm using a SpectraMax M3 plate reader (Molecular Devices, Wokingham, UK).

[12] = target: T6, cynomolgus monkey TREM1 on neutrophils (cynomolgus monkey); assay: flow cytometry of whole blood, free TREM1 on neutrophils (percent of baseline) in cynomolgus monkeys dosed IV once weekly for 14 weeks
T6 construct: Endogenous receptor on neutrophils of dosed animals (receptor occupancy by flow cytometry); also called free TREM1 receptors on neutrophils (cynomolgus)
T6 chain: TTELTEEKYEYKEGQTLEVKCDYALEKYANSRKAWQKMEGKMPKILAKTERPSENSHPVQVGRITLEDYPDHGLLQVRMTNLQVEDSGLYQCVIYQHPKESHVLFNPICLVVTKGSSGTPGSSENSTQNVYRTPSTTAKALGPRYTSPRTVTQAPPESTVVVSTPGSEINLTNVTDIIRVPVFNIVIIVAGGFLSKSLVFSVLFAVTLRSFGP

[13] = target: T7, recombinant monovalent pig TREM1-ECD (pig (Sus scrofa), UniProt Q6TYI6 21-210); assay: BLI; antibody on AHC sensor, monovalent TREM1-ECD in solution
T7 construct: whole entry named
T7 sequence: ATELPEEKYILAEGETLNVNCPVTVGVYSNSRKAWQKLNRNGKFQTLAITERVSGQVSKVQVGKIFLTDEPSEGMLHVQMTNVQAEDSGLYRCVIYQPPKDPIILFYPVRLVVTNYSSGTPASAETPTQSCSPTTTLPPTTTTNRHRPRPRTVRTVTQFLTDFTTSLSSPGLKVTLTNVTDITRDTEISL
Excerpt: (§5) Sensors were monitored to establish a baseline.
(§6) The coefficient of determination of the 1:1 model fit to the BLI sensorgrams is represented by the R\hat{ }2 value. Data for human and cynomolgus monkey represents averages across three replicates. Data for pig, dog, rabbit, rat, and mouse represents averages across two replicates.

[14] = target: T8, recombinant monovalent mouse TREM1-ECD (mouse, UniProt Q9JKE2 21-202); assay: as above
T8 construct: whole entry named
T8 sequence: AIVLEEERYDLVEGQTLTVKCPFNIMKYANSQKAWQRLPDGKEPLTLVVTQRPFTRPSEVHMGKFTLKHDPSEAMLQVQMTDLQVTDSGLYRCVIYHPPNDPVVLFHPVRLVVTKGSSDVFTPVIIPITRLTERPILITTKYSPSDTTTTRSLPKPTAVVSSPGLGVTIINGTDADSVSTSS
Excerpt: as §5, §6

[15] = target: T9, recombinant monovalent dog TREM1-ECD (dog (Canis familiaris)); assay: as above
T9 construct: whole entry named
T9 chain: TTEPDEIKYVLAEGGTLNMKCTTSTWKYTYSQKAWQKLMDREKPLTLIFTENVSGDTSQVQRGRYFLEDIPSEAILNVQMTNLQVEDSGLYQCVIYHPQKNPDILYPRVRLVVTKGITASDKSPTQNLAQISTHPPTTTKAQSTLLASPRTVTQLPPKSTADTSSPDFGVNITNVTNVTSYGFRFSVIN
Excerpt: as §5, §6

[16] = target: T10, recombinant monovalent rabbit TREM1-ECD (rabbit); assay: as above
T10 construct: extracellular domain
Excerpt: as §5, §6

[17] = target: T11, recombinant monovalent cynomolgus monkey TREM1-ECD (cynomolgus monkey); assay: as above
T11 construct: whole entry named; also called cyno TREM1-ECD
T11 chain: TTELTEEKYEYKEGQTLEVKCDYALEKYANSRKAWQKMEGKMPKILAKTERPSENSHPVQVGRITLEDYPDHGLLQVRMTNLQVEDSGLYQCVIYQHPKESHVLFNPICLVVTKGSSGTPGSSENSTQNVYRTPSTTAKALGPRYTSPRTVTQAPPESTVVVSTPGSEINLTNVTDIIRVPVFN
Excerpt: as §5, §6

[18] = target: T12, human TREM2-ECD fused to an Fc domain (human, UniProt Q9NZC2 19-174); assay: bio-layer interferometry, TREM2-ECD-Fc immobilised on the sensor, antibody in solution, maximum response
T12 construct: extracellular domain; the text tells one result for TREM2-ECD, so they are written as one molecule; also called human TREM2-ECD (BioLegend, 786404 and R&D Systems, 1828-T2-050); not shown: Fc domain
T12 sequence (looked up): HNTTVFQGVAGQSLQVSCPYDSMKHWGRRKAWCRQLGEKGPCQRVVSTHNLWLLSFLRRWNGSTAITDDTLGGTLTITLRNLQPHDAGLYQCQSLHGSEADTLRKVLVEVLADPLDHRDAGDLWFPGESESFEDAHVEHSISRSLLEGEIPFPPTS
Description: In addition to TREM1, the TREM gene family also includes TREM2. […] Without wishing to be bound by any particular theory, TREM1 and TREM2 are thought to play opposing roles in modulating immune responses; see e.g., Sharif and Knapp, Immunobiology, 213(9-10):701-713 (2008). […] Briefly, 10 μg/mL TREM2-ECD fused to an Fc domain was immobilized on a sensor. Sensors were quenched and monitored to establish a baseline. […] The maximum BLI response was measured (FIG. 13).

Ratio (against Trastuzumab; not defined) (hFcγRIIA167R [1]): 0.33
Ratio (against Trastuzumab; not defined) (hFcγRIIIA176V [2]): 0.05
IC50 (recombinant hTREM1-chFc1 [3]): 0.0045 µM
IC50 (read off the curve) (recombinant hTREM1-chFc1 [4]): ~0.005 µM
Kd (hFcγRIIA167R [5]): 28.4 µM
Kd (hFcγRIIIA176V [6]): 6.66 µM
Ratio (against Trastuzumab; not defined) (hFcγRIIA167R [7]): 0.33
Ratio (against Trastuzumab; not defined) (hFcγRIIIA176V [8]): 0.05
Kd (hFcγRIIA167R [9]): 28.3 µM
Kd (hFcγRIIIA176V [10]): 6.49 µM
binding result [11]: no binding (tested: 5 µg/mL)
binding result (purified human C1q): no binding
binding result [12]: binds
Maximum BLI response [13]: 0.013 nm
Maximum BLI response [14]: 0.005 nm
Maximum BLI response [15]: 0.006 nm
Maximum BLI response [16]: 0.005 nm
Kd [17]: 0.0019 µM
Maximum BLI response [17]: 0.343 nm
binding result [18]: no binding (tested: 3 ug/mL)
B1: anti-TREM1 antibody agent clone A (antibody, human IgG1, kappa)
heavy: EVQLVESGGVLVQPGGSLRLSCAASGITFSNSWMSWVRQAPGKGLEWVANIKQDGSEKYYVDSVKGRFTISRDNAKESLFLQMNSLRAEDTAVYYCARGGISTFDIWGQGTMVTVSSASTKGPSVFPLAPSSKSTSGGTAALGCLVKDYFPEPVTVSWNSGALTSGVHTFPAVLQSSGLYSLSSVVTVPSSSLGTQTYICNVNHKPSNTKVDKKVEPKSCDKTHTCPPCPAPPVAGPSVFLFPPKPKDTLMISRTPEVTCVVVDVSHEDPEVKFNWYVDGVEVHNAKTKPREEQYNSTYRVVSVLTVLHQDWLNGKEYKCKVSNKALPAPIEKTISKAKGQPREPQVYTLPPSRDELTKNQVSLTCLVKGFYPSDIAVEWESNGQPENNYKTTPPVLDSDGSFFLYSKLTVDKSRWQQGNVFSCSVMHEALHNHYTQKSLSLSPGK
light: not shown
notes: heavy chain carries the IgG1 constant region with PVAdelG, light chain is kappa; also called anti-TREM1 clone A; Anti-TREM1 Antibody Clone A
